The text below walks through data of PMC5906708, “Manipulation of Light Signal Transduction Factors as a Means of Modifying Steroidal Glycoalkaloids Accumulation in Tomato Leaves”.

The target in one series is T1, SlHY5 (GST-HY5) (Solanum lycopersicum, UniProt Q9SM50 1-158).
T1 sequence: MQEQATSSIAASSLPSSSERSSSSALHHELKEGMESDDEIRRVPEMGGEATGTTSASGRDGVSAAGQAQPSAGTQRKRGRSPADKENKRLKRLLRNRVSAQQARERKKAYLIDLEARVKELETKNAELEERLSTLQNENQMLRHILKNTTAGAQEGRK
Description: EMSA; LightShift Chemiluminescent EMSA kit, 25 min at 22 C, 6% native PAGE; buffer, salt and pH not stated. To be noted: protein: recombinant, tags: GST (pGEX-4T-1), chain copies: 2, label: biotin. A general note: A gel shift assay detects complexes by their altered migration in electrophoresis.

For another series, the target named is SlPIF3 (GST-PIF3) (Solanum lycopersicum, UniProt A0A3Q7EQR7 388-618). Described as above. To be noted: protein: recombinant, tags: GST (pGEX-4T-1), chain copies: 2, label: biotin.
SlPIF3 (GST-PIF3), sequence (A0A3Q7EQR7 entry or part of it): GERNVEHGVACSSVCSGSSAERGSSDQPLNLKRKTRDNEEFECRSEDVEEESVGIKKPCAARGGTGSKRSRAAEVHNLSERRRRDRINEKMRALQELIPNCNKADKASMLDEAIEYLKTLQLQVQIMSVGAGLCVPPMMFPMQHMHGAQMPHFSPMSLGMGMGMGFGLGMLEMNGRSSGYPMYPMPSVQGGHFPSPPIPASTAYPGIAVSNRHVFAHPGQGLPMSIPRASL

B1: GAME18 probe (dsDNA)
DNA 1: TGATACAACTAAAAGACATACGTTTAAAAAAGCAAATTGATCAAGTCGTTTG
DNA 2: CAAACGACTTGATCAATTTGCTTTTTTAAACGTATGTCTTTTAGTTGTATCA
Regarding B1, the binding result with SlHY5 (GST-HY5) (blunt) and with SlPIF3 (GST-PIF3) (blunt) was “no binding” each time.

B2: GAME6 probe (dsDNA)
DNA 1: ATAATAACACCGTTTCTCTGCTTTAAGCGTGCTTTTTATCTCATAACTAAAAACT
DNA 2: AGTTTTTAGTTATGAGATAAAAAGCACGCTTAAAGCAGAGAAACGGTGTTATTAT
On to B2, for which the binding result with SlHY5 (GST-HY5) (blunt) and with SlPIF3 (GST-PIF3) (blunt) was “no binding” throughout.

B3: GAME17 promoter G-box probe (dsDNA)
DNA 1: CGACATTTGATTGAATTTTAAATTTCACACGTGATACATAGATTGAGATT
DNA 2: AATCTCAATCTATGTATCACGTGTGAAATTTAAAATTCAATCAAATGTCG
B3: the binding result with SlHY5 (GST-HY5) and in the series with SlPIF3 (GST-PIF3) was “binds” throughout.

B4: GAME12 probe (dsDNA)
DNA 1: GAAACGATATAATATACGTGATACAAGTTTATTAATAAATCAATGGCCCA
DNA 2: TGGGCCATTGATTTATTAATAAACTTGTATCACGTATATTATATCGTTTC
For the molecule B4, the binding result with SlHY5 (GST-HY5) (blunt) and with SlPIF3 (GST-PIF3) (blunt) was “no binding” in each case.

B5: GAME2 probe (dsDNA)
DNA 1: ATCCCAAAAGAGTTGTTAGGTCGTGCACAAAACCCGTTTTCTGCGAAAAT
DNA 2: ATTTTCGCAGAAAACGGGTTTTGTGCACGACCTAACAACTCTTTTGGGAT
As to B5, the binding result in the series with SlHY5 (GST-HY5) (blunt) and with SlPIF3 (GST-PIF3) (blunt) was “no binding” in each case.

B6: GAME11 probe (dsDNA)
DNA 1: AAGTAAATTATAAATATACGTGACGAAAACGATCTTTAAAATTCTTTGTA
DNA 2: TACAAAGAATTTTAAAGATCGTTTTCGTCACGTATATTTATAATTTACTT
On to B6, for which the binding result with SlHY5 (GST-HY5) (blunt) and with SlPIF3 (GST-PIF3) (blunt) was “no binding” throughout.

B7: GAME1 promoter G-box probe (dsDNA)
DNA 1: GATTGCTTAAAGAGAGAATACCACGTGATGTCCCCCACACCACACCTGCT
DNA 2: AGCAGGTGTGGTGTGGGGGACATCACGTGGTATTCTCTCTTTAAGCAATC
With B7, the binding result with SlHY5 (GST-HY5) and with SlPIF3 (GST-PIF3) was “binds” each time.

B8: GAME4 promoter G-box probe (dsDNA)
DNA 1: GTTGGGGGGCTAAATTATATTCACGTGATTGTATTTTTTTTTTTAATTGC
DNA 2: GCAATTAAAAAAAAAAATACAATCACGTGAATATAATTTAGCCCCCCAAC
Turning to B8, the binding result in the series with SlHY5 (GST-HY5) and with SlPIF3 (GST-PIF3) was “binds” in each case.
